# Measured values published in PMC4793188, “Mechanism and inhibition of human UDP-GlcNAc 2-epimerase, the key enzyme in sialic acid biosynthesis” (Scientific Reports, 2016).
# B1: epimerase part of human GNE (UDP-GlcNAc 2-epimerase domain of the bifunctional UDP-GlcNAc 2-epimerase/ManNAc kinase) (domain or fragment)
# chain: MEKNGNNRKLRVCVATCNRADYSKLAPIMFGIKTEPEFFELDVVVLGSHLIDDYGNTYRMIEQDDFDINTRLHTIVRGEDEAAMVESVGLALVKLPDVLNRLKPDIMIVHGDRFDALALATSAALMNIRILHIEGGEVSGTIDDSIRHAITKLAHYHVCCTRSAEQHLISMCEDHDRILLAGCPSYDKLLSAKNKDYMSIIRMWLGDDVKSKDYIVALQHPVTTDIKHSIKMFELTLDALISFNKRTLVLFPNIDAGSKEMVRVMRKKGIEHHPNFRAVKHVPFDQFIQLVAHAGCMIGNSSCGVREVGAFGTPVINLGTRQIGRETGENVLHVRDADTQDKILQALHLQFGKQYPCSKIYGDGNAVPRILKFLKSIDLQEPLQKKFCFPPVKENISQDIDHILE
# modifications: selenomethionine (Se-Met enriched protein, used for the crystal structure)
# notes: UDP-GlcNAc 2-epimerase domain (N-terminal epimerase part, ~400 aa) of human bifunctional UDP-GlcNAc 2-epimerase/ManNAc kinase (GNE, ~720 aa); Cloned into pET21a(+); dimer as apo-enzyme by gel filtration; also called 2-epimerase domain of GNE; recombinant human UDP-GlcNAc 2-epimerase; source: E. coli BL21 (DE3), purified (Ni-NTA, Superdex-200)
# Columns and labels:
# [1] = molecular target: the molecule itself; assay: SEC; gel filtration of the apo-enzyme; data not shown
# [2] = molecular target: the molecule itself; assay: crystal structure; Se-Met protein incubated in 5 mM UDP-GlcNAc and 5 mM CMP-Neu5Ac for 16-18 h at 4 °C; crystals from 0.2 M ammonium acetate, 0.1 M HEPES pH 7.1, 19% PEG 3350; UDP and CMP-Neu5Ac bound; 2.7 Å; space group C2, four monomers in the asymmetric unit
protein,measurement,setting,value
B1,stoichiometry N,[1],2
same,stoichiometry N,[2],4
